From patent US20150197559A1
Residue numbers refer to the chain shown, from its start.

B1: B11 Fab (Fab, V domains shown)
VH: QVQLLQSAGGVVQPGRSLRLSCAASGFIFRTYGMHWVRQAPGKGLEWVAFVSSDGNNKFYSDSVKGRFTIPRDNAKNTLYLQMNSLETEDTAVYYCAKDRYPIDCSGGSCFSYGMDVWGQGTTVTVSS
VL: DIVMTQSPSTLSASVGDRVTVTCRASQSINSWLAWYQQKPGKAPKLLIYEASSLESGVPSRFSGSGSGTEFTLTISSLQPDDFATYYCQQYDSYWLTFGGGTKVEIKR
B2: B11E8 IgG (antibody, V domains shown)
VH: B1 VH with Q1E, L5V, A8G, P71S, V93M
VL: EIVLTQSPATLSVSPGERATLSCRASQSVSKFLAWYQQKRGQAPRLLIYGASTRATGIPARFSGSGSGTEFALTISSLQSEDFADYYCQQYDNWPITFGQGTRLEIKR
B3: 1B22 IgG (antibody, V domains shown)
VH: QVQLQESGSRLVKPSQTLSLTCGVSGGSISSSSYSWSWIRQTPGKGLEWIGYIYHSGSTYYNPSLKSRVTMSVDKSRNQFSLNMSSVTAADTAVYYCARTAFYYENTGPIRCYLDFWGQGTLVTVSS
VL: DIQMTQSPSTLSASIGDRVTISCRASQSIQSWLAWYQQRPGEAPKLLIYSASTLQTGVPSRFSGSGSGTDFTLTISSLQPEDFATYYCQQYNSYPLTFGQGTKLEIK
B4: B12.1 IgG (antibody, V domains shown)
VH: QVNLRESGGGVVQPGRSLRLSCAASGFTFSSYALHWVRQTPGKGLEWVALISYDGSNKYYADSVKGRFTISRDNSKNMLYLQMNSLRAEDTAVYYCAKDRSHYGDYVGYLDYWGQGTLVTVSS
VL: AYVLTQPPSVSVAPGKTAAITCEGNNVGNKNVHWYQQRPGQAPVLVVHDDSDRPSGIPERFSGSNSGNTATLTINRVEAGDEADYYCQVWDSSSAQWVFGGGTKLTVLG
B5: 1B18 IgG (antibody, V domains shown)
VH: EVQLVQSGGGLVQPGGSRRLSCAASGFYFNAYWMTWVRQAPGKGLEWVANINLDGTEIYYLDSVKGRFTVSRDNVKNSVFLQMSSLRVEDTAVYFCARLEWGGRNGWVSPWGQGTLVTVSS
VL: DVVMTQSPSSVSASVGDRVTITCRASQSISSYLNWYQQRPGKAPKLLIFAASSLQSAVPSRFSGSGSGTDFTLTISSLQPEDFATYYCQQSYSTPPTFGQGTKVEIKR
B6: 2B25.1 IgG (antibody, V domains shown)
VH: QVQLQESGPGLVKPSQTLSLSCSVSGASITSGTFYWSWIRQHPGKDLEWIGYIYYSGTTYYNPSLKSRVTLSVDTSKNQFSLKVTSLTAADTAVYHCARGVPIYDSSGTYRGTYFDYWGQGTLVTVSS
VL: ESVLTQPPSVSAAPGQKVTISCSGSSSNIGNNYVSWYQQLPGTAPKLLIYDNNRRPSGIPDRFSGSKSGTSATLGITGLQTGDEADYYCGTWDSSLSEVVFGGGTKVTVLG
B7: 1B10.1 IgG (antibody, V domains shown)
VH: QVQLVESGGGVVQPGRSLRLSCAASGFTFSHYGMHWVRQSPGKGLEWVAVIWYDGRNPYYAASVKGRFTISRDNDKNTLYLQMNSLRAEDTAVYYCVKDLTRFHDTTFGVFEMWGPGTTVTVSS
VL: EIVLTQSPSFVSASVGDRVTITCRASQGISSWLAWYQQKPGKAPKLLIYAASSLQSGVPSRFSGSGSGTEFTLTISSLQPDDFATYYCQQYSSLYTFGQGTKVDIKR
B8: 2B23 IgG (antibody, V domains shown)
VH: EVQLLESGGGLVQPGGSLRLSCAASGFTFSNYPMSWVRQAPGKGLAWVSSLTASGDNTFYADSVKGRFTISRDNSNNTLYLQMHSLRAEDTAVYYCAKALVGRYDISTGYYRPVMDSWGQGTLVTVSS
VL: DIQMTQSPPSLSASVGDRVTITCRTSQGFTSALAWYQQKPGEPPKLLIYDASKLESGVPSRFSGSGSGTNFALTISSLQPEDFATYFCQQSNSYPLTFGGGTKVEIKR
B9: B11E8 Fab (Fab, V domains shown)
VH: B1 VH with Q1E, L5V, A8G, P71S, V93M
VL: B2 VL
B10: 2B30 scFv (scFv)
scFv: EVQLVESGGGVVQPGRSLRLSCAASGFTFRRNAIHWVRQAPGKGLEWVAVISYDGVNKYYAASVKGRFAISRDNAKNTLFLQMNSLRPEDSAIYYCARDVSEYGDYVGHFDYWGQGTLVTVSSGGGGSGGGGSGGGGSSYELMQLPSASGTPGQRVSISCSGSSSNIGSNPVNWYQQLPGTAPKLLIYSNNHRPSGVPDRFSGSKSGTSASLAISGLQSEDEADYYCAAWDGSLNGHVVFGGGTKLTVL
B11: B11 scFv (scFv)
scFv: QVQLLQSAGGVVQPGRSLRLSCAASGFIFRTYGMHWVRQAPGKGLEWVAFVSSDGNNKFYSDSVKGRFTIPRDNAKNTLYLQMNSLETEDTAVYYCAKDRYPIDCSGGSCFSYGMDVWGQGTTVTVSSGGGGSGGGGSGGGGSDIVMTQSPSTLSASVGDRVTVTCRASQSINSWLAWYQQKPGKAPKLLIYEASSLESGVPSRFSGSGSGTEFTLTISSLQPDDFATYYCQQYDSYWLTFGGGTKVEIK
B12: B6 scFv (scFv)
scFv: QVQLVQSGAEVKKPGESLVISCKASGDKDTFTSFWIAWVRQMPGKGLEWMGIIYAGDSDTRYSPSFQGHVNISVDRSTNTAYLQWSSLKASDTAMYYCARHDSRYKYFYFGMDVWGQGTTVTVSSGGGGSGGGGSGGGGSDVVMTQSPSSLSASVGDRITITCQAGQDISNFLNWYQQKPGKAPKLLIRDASNLETGVPSRFSGGGSGTHFTFTISSLHPEDIATYFCQQYDNLPYTFGQGTKLEIK
B13: B11E8 scFv (scFv)
scFv: EVQLVQSGGGVVQPGRSLRLSCAASGFIFRTYGMHWVRQAPGKGLEWVAFVSSDGNNKFYSDSVKGRFTISRDNAKNTLYLQMNSLETEDTAMYYCAKDRYPIDCSGGSCFSYGMDVWGQGTTVTVSSGGGGSGGGGSGGGGSEIVLTQSPATLSVSPGERATLSCRASQSVSKFLAWYQQKRGQAPRLLIYGASTRATGIPARFSGSGSGTEFALTISSLQSEDFADYYCQQYDNWPITFGQGTRLEIK

These binders were tested against BoNT/B2 (Clostridium botulinum) (assay: flow cytometry, yeast-displayed Fab against yeast-displayed scFv).

Binder | fold higher affinity than the scFv [fold]
B1 | 1.46

The binders below were run against BoNT/B2 (Clostridium botulinum) (assay: KinExA flow fluorimetry, IgG in solution).

Binder | Kd [nM]
B2 | 0.0181
B3 | 0.319
B4 | 0.0162
B5 | 0.817
B6 | 0.0532
B7 | 0.00031
B8 | 0.0453

These binders were tested against BoNT/B4 (Clostridium botulinum) (assay: KinExA flow fluorimetry, IgG in solution).

Binder | Kd [nM]
B3 | 0.129
B4 | 0.625
B5 | 0.021
B6 | 0.03
B7 | 0.00047
B8 | 0.0552

These binders were tested against BoNT/B3 (Clostridium botulinum) (assay: KinExA flow fluorimetry, IgG in solution).

Binder | Kd [nM]
B2 | 0.0156
B3 | 0.221
B4 | 0.0462
B5 | 0.972
B6 | 0.0177
B7 | 1.2
B8 | 0.048

These binders were tested against BoNT/B2 (Clostridium botulinum) (assay: flow cytometry, yeast-displayed Fab, soluble toxin).

Binder | Kd [nM]
B9 | 0.166

The binders below were run against BoNT/B2 (Clostridium botulinum) (assay: flow cytometry, yeast-displayed scFv, soluble toxin).

Binder | Kd [nM]
B10 | 0.19
B11 | 2.11
B12 | 1.77
B13 | 0.189
